Results from patent US20160264960A1 (Chugai, published 2016).
One block for each binder: values may come before it.

Columns and labels:
soluble human IL-6R [1] = biological target: T1, soluble human IL-6R (human, UniProt P08887 20-357); test: biolayer interferometry (Octet RED384), antibody on Protein G biosensor, soluble human IL-6R in solution, 120 s association and 120 s dissociation [a]
T1 construct: Analyte in the Octet experiments; also called hIL-6R; soluble hIL-6R
T1 sequence: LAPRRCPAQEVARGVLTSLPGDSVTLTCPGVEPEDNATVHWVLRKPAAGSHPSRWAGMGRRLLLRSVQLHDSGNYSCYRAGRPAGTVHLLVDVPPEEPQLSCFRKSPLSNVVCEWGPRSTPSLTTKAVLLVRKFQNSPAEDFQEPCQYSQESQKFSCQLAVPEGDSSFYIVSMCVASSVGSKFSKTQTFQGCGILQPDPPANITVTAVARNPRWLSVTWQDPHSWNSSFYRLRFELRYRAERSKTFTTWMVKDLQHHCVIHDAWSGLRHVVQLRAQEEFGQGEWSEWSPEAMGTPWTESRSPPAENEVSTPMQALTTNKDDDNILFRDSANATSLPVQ
Procedure: (§1) Each antibody (6RNH-2_02, 6RNH-2_37, 6RNH-3(2)_32, and 6RNH-2_42) obtained in the paragraph (4-1) was evaluated for its binding activity against soluble human IL-6R using Octet RED384 (forteBIO). The binding evaluation was conducted using HBS-EP+ Buffer (GE Healthcare Japan Corp.) as a buffer.
(§2) After binding of the antibody to Protein G Biosensors (forteBIO), soluble human IL-6R was allowed to interact with the antibody on the biosensor through contact therebetween for 120 seconds, and subsequently contacted with the buffer for 120 seconds to measure the antibody-antigen interaction. Then, the biosensor was regenerated through contact with 10 mmol/L glycine-HCl (pH 1.5). The measurement was conducted at 30° C.

soluble human IL-6R [2] = biological target: T1, soluble human IL-6R; test: biolayer interferometry (Octet RED384), antibody on Protein G biosensor, soluble human IL-6R in solution, 120 s association and 120 s dissociation [b]
Procedure: as §1, §2

soluble human IL-6R [3] = biological target: T1, soluble human IL-6R; test: biolayer interferometry (Octet RED384), antibody on Protein G biosensor, soluble human IL-6R in solution, 120 s association and 120 s dissociation [c]
Procedure: as §1, §2

soluble human plexin A1 [4] = biological target: T2, soluble human plexin A1 (human, UniProt Q9UIW2 27-1244); test: biolayer interferometry (Octet RED384), antibody on Protein G biosensor, soluble human plexin A1 in solution; antigen concentration not given [a]
T2 construct: also called hPlexin A1; human Plexin A1 extracellular region
T2 sequence (Q9UIW2 other isoform, or with tags, fused parts or gaps): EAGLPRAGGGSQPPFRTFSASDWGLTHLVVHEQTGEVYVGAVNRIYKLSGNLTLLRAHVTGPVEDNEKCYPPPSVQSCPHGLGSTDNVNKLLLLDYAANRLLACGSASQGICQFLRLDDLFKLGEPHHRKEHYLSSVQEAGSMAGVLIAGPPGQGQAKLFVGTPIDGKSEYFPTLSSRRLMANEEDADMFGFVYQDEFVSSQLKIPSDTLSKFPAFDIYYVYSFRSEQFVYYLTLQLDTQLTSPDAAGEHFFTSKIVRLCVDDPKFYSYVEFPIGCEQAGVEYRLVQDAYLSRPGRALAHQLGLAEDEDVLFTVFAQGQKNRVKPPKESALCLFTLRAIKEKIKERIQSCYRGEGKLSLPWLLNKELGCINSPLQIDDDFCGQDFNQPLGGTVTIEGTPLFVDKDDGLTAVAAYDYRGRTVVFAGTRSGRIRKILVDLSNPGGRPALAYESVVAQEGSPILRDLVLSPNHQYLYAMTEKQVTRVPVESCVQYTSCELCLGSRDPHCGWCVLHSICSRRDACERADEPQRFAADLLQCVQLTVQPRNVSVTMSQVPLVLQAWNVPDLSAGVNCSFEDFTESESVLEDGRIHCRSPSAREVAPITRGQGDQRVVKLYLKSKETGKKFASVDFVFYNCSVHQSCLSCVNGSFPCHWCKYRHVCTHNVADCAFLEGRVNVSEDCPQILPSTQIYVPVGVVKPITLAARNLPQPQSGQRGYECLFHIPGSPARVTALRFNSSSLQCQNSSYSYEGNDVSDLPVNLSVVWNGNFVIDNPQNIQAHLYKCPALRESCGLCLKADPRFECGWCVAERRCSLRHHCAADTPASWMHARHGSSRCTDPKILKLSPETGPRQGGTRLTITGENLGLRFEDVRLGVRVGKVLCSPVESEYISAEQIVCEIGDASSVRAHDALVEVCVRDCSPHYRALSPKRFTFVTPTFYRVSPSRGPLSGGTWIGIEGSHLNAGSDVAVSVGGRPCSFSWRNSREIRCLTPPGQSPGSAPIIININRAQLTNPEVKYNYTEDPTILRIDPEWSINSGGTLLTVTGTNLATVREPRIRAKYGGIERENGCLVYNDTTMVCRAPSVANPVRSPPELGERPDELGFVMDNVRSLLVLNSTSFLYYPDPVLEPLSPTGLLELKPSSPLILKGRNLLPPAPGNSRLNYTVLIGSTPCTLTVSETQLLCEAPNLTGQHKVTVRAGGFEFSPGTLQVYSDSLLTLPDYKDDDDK
Procedure: (§3) The binding evaluation was conducted using HBS-EP+Buffer (GE Healthcare Japan Corp.) as a buffer.
as §2, with “IL-6R or soluble human plexin A1” for “IL-6R”

soluble human IL-6R [5] = biological target: T1, soluble human IL-6R; test: biolayer interferometry (Octet RED384), antibody on Protein G biosensor, soluble human IL-6R in solution, 120 s association and 120 s dissociation [a]; remark: listed apart in the source
Procedure: as §3
as §2, with “IL-6R or soluble human plexin A1” for “IL-6R”

soluble human IL-6R [6] = biological target: T1, soluble human IL-6R; test: as above; remark: listed apart in the source
Procedure: (§4) The antibody (6RhCEB3(2)_10) obtained in the paragraph (6-2) or an anti-CD3 antibody hCE115HA/L0000 (heavy chain: SEQ ID NO: 42; light chain: SEQ ID NO: 66) was evaluated for its binding activity against soluble human IL-6R and human CD3e (hCD3e) using Octet RED384 (forteBIO). The binding evaluation was conducted using HBS-EP+Buffer (GE Healthcare Japan Corp.) as a buffer.
as §2, with “IL-6R or human CD3e” for “IL-6R”

[7] = biological target: T3, human CD3e (hCD3e) extracellular region with FLAG tag (human, UniProt P07766 22-129); test: biolayer interferometry (Octet RED384), antibody on Protein G biosensor, human CD3e in solution; antigen concentration not given [a]
T3 sequence (P07766 other isoform, or with tags, fused parts or gaps): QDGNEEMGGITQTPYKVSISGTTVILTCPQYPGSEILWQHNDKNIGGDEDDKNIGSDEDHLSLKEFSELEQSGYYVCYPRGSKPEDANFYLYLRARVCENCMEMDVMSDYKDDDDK
Procedure: as §4
as §2, with “IL-6R or human CD3e” for “IL-6R”

[8] = biological target: T3, human CD3e (hCD3e) extracellular region …; test: biolayer interferometry (Octet RED384), antibody on Protein G biosensor, human CD3e in solution, 120 s association and 120 s dissociation [b]
Procedure: as §4
as §2, with “IL-6R or human CD3e” for “IL-6R”

soluble human IL-6R [9] = biological target: T1, soluble human IL-6R; test: biolayer interferometry (Octet RED384), antibody on Protein G biosensor, soluble human IL-6R in solution; antigen concentration not given [b]
Procedure: as §4
as §2, with “IL-6R or human CD3e” for “IL-6R”

soluble human IL-6R [10] = biological target: T1, soluble human IL-6R; test: as above; remark: listed apart in the source
Procedure: as §3
as §2, with “IL-6R or soluble human plexin A1” for “IL-6R”

soluble human plexin A1 [11] = biological target: T2, soluble human plexin A1; test: biolayer interferometry (Octet RED384), antibody on Protein G biosensor, soluble human plexin A1 in solution, 120 s association and 120 s dissociation [b]
Procedure: as §3
as §2, with “IL-6R or soluble human plexin A1” for “IL-6R”

soluble human IL-6R [12] = biological target: T1, soluble human IL-6R; test: biolayer interferometry (Octet RED384), antibody on Protein G biosensor, soluble human IL-6R in solution, 120 s association and 120 s dissociation [a]; remark: listed apart in the source
Procedure: (§5) Each antibody (6RmIAB3(2)_02, 6RmIAB3(2)_06, and 6RmIAB3(2)_16) obtained in the paragraph (6-2) or an anti-mouse IgA antibody mIANMIgL_095 (heavy chain: SEQ ID NO: 41; light chain: SEQ ID NO: 65) was evaluated for its binding activity against soluble human IL-6R and mouse IgA using Octet RED384 (forteBIO). The binding evaluation was conducted using HBS-EP+Buffer (GE Healthcare Japan Corp.) as a buffer.
as §2, with “IL-6R or mouse IgA” for “IL-6R”

mouse IgA [13] = biological target: T4, mouse IgA (mouse, UniProt P01878 114-344); test: biolayer interferometry (Octet RED384), antibody on Protein G biosensor, mouse IgA in solution; antigen concentration not given [a]
T4 sequence (looked up): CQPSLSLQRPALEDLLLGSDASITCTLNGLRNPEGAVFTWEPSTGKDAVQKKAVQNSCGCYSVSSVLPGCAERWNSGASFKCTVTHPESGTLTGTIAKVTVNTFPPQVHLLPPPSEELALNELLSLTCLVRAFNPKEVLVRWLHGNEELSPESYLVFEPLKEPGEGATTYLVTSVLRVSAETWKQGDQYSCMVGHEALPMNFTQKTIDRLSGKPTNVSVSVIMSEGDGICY
Procedure: as §5
as §2, with “IL-6R or mouse IgA” for “IL-6R”

soluble human IL-6R [14] = biological target: T1, soluble human IL-6R; test: biolayer interferometry (Octet RED384), antibody on Protein G biosensor, soluble human IL-6R in solution; antigen concentration not given [d]
Procedure: as §5
as §2, with “IL-6R or mouse IgA” for “IL-6R”

soluble human IL-6R [15] = biological target: T1, soluble human IL-6R; test: biolayer interferometry (Octet RED384), antibody on Protein G biosensor, soluble human IL-6R in solution, 120 s association and 120 s dissociation [b]; remark: listed apart in the source
Procedure: as §5
as §2, with “IL-6R or mouse IgA” for “IL-6R”

mouse IgA [16] = biological target: T4, mouse IgA; test: biolayer interferometry (Octet RED384), antibody on Protein G biosensor, mouse IgA in solution; antigen concentration not given [b]
Procedure: as §5
as §2, with “IL-6R or mouse IgA” for “IL-6R”

- binding result (soluble human plexin A1 [4]): no binding
- binding result (soluble human IL-6R [5]): binds
B4: 6RPAB3_03 (antibody, human IgG1, kappa, V domains shown)
VH: EVQLVESGGGLVQPGGSLRLSCATSGFTFSSYEMNWVRQAPGKGLEWVSYIDRSGSTIYYADSVKGRFTISRDNAKNSLYLQMNSLRAEDTAVYYCAGEWWQGDSWGQGTTVTVSS
VL: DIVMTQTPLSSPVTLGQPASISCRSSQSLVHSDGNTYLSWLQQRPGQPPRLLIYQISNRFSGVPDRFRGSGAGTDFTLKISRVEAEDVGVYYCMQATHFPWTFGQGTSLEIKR

- binding result (soluble human IL-6R [10]): no binding
- binding result (soluble human plexin A1 [11]): binds
B7: hPANKB2-3#135 (antibody, human IgG1, kappa, V domains shown)
VH: EVQLVQSGAEVKKPGASVKVSCKASGYTFTSYGISWVRQAPGQGLEWMGWISAYNGNTNYAQKLQGRVTMTTDTSTSTAYMELRSLRSDDTAVYYCARGGRGGDAFDIWGQGTMVTVSS
VL: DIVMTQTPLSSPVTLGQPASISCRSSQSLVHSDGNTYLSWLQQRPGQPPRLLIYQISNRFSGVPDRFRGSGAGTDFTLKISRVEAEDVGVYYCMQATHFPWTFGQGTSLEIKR

- binding result (soluble human IL-6R [14]): no binding
B9: mIANMIgL_095 (antibody, human IgG1, lambda, V domains shown)
VH: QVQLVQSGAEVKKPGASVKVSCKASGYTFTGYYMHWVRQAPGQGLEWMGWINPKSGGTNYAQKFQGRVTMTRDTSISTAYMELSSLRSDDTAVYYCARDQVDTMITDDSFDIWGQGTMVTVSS
VL: SYELTQPPSVSVSPGQSASITCSGDKLGDRFVTWYQQKPGQSPVLVMYQDNQRPSGIPERFSGSNSGNTATLTITGTPAMDEADYYCQTWDAGTGVVFGGGTKLTVLS
notes: also called anti-mouse IgA antibody mIANMIgL_095

Further lines, the binder ahead of its results:

B1: 6RNH-2_02 (antibody, human IgG1, kappa, V domains shown)
VH: QVQLVETGGGMVQPGGSLRLSCAASGFMFSTYAMSWVRQASGKGLEWVSLISGTGSVTKYADSVKGRFTISRDNSKNMVYLQMNNLGADDTAVYYCANSDYGDYARFDHWGQGTLVTVSS
VL: DIQMTQSPSSLSASVGDSVTITCQASQDISSYLNWYQQKPGKAPELLIYYGSELHSGVPSRFSGSGSGTDFTFTISSLEAEDAATYYCGQGNRLPYTFGQGTKVEIER
notes: IgG with the PF1 L chain, purified on Protein A
- binding result (soluble human IL-6R [1]): binds

B2: 6RNH-2_37 (antibody, human IgG1, kappa, V domains shown)
VH: QVQLQESGPGLVRPSQTLSLTCTVSGYSITSDHAWSWVRQPPGRGLEWIGYISYSGITTYNPSLKSRVTMLRDTSKNQFSLRLSSVTAADTAVYYCARSLARTTAMDYWGQGTLVTVSS
VL: DIQMTQSPSSLSASVGDSVTITCQASQDISSYLNWYQQKPGKAPELLIYYGSELHSGVPSRFSGSGSGTDFTFTISSLEAEDAATYYCGQGNRLPYTFGQGTKVEIER
notes: IgG with the PF1 L chain
- binding result (soluble human IL-6R [2]): binds

B3: 6RNH-3(2)_32 (antibody, human IgG1, kappa, V domains shown)
VH: QVQLQESGPGLVKPSETLSLTCAVSGYSISHDHAWSWVRQPPGEGLEWIGHISYSGITNYNPHLQDRVTISRDTSKNQFSLKLSSVTAADTAVYYCARFLARITAHDHWGEGTLVTVSS
VL: DIQMTQSPSSLSASVGDSVTITCQASQDISSYLNWYQQKPGKAPELLIYYGSELHSGVPSRFSGSGSGTDFTFTISSLEAEDAATYYCGQGNRLPYTFGQGTKVEIER
notes: IgG with the PF1 L chain
- binding result (soluble human IL-6R [3]): binds

B5: 6RhCEB3(2)_10 (antibody, human IgG1, kappa, V domains shown)
VH: QVQLVQSGAEVKKPGSSVKVSCKASGGTFSSYAISWVRQAPGQGLEWMGGIIPIFGTANYAQKFQGRVTITADESTSTAYMELSSLRSEDTAVYYCARDHYDILTGYPDPTYYYYGMDVWGQGTMVTVSS
VL: DIVMTQSPLSLPVTPGEPASISCRSSQSLVHSNRNTYLHWYQQKPGQAPRLLIYKVSNRFSGVPDRFSGSGSGTDFTLKISRVEAEDVGVYYCGQGTQVPYTFGQGTKLEIKR
notes: IgG with the L chain of the humanized anti-CD3 antibody CE115
- binding result (soluble human IL-6R [6]): binds
- binding result [7]: no binding

B6: hCE115HA/L0000 (antibody, human IgG1, kappa, V domains shown)
VH: QVQLVESGGGVVQPGRSLRLSCAASGFTFSNAWMHWVRQAPGKGLEWVAQIKAKSNNYATYYAESVKGRFTISRDDSKNSLYLQMNSLKTEDTAVYYCRYVHYGAYYGVDAWGQGTTVTVSS
VL: DIVMTQSPLSLPVTPGEPASISCRSSQSLVHSNRNTYLHWYQQKPGQAPRLLIYKVSNRFSGVPDRFSGSGSGTDFTLKISRVEAEDVGVYYCGQGTQVPYTFGQGTKLEIKR
notes: also called anti-CD3 antibody hCE115HA/L0000; humanized anti-human CD3 antibody CE115
- binding result [8]: binds
- binding result (soluble human IL-6R [9]): no binding

B8: 6RmIAB3(2)_02 (antibody, human IgG1, lambda, V domains shown)
VH: QVQLQESGPGLVKPSGTLSLTCAVSGGSISSSDWWSWVRQPPGKGLEWIGEIYHGGSTNYNPSLKSRVTISVDRSKNQFSLNLSSVTAADTAVYYCARAPRGSYRIDYWGQGTLVTVSS
VL: SYELTQPPSVSVSPGQSASITCSGDKLGDRFVTWYQQKPGQSPVLVMYQDNQRPSGIPERFSGSNSGNTATLTITGTPAMDEADYYCQTWDAGTGVVFGGGTKLTVLS
notes: IgG with the L chain of the anti-mouse IgA antibody mIANMIgL_095; Culture supernatant was recovered; no purification is described
- binding result (soluble human IL-6R [12]): binds
- binding result (mouse IgA [13]): no binding

B10: 6RmIAB3(2)_06 (antibody, human IgG1, lambda, V domains shown)
VH: QVQLVQSGAEVKKPGASVKVSCKASGYTFATSGISWVRQAPGQGLEWLGWISPYNSRTNSAQKLQGRVNMTTDTSTNTAYLELRSLTSDDTAVYYCARANGDYRNWFDPWGQGTLVTVSS
VL: SYELTQPPSVSVSPGQSASITCSGDKLGDRFVTWYQQKPGQSPVLVMYQDNQRPSGIPERFSGSNSGNTATLTITGTPAMDEADYYCQTWDAGTGVVFGGGTKLTVLS
notes: IgG with the L chain of the anti-mouse IgA antibody mIANMIgL_095; Culture supernatant was recovered
- binding result (soluble human IL-6R [15]): binds
- binding result (mouse IgA [16]): no binding
